Assay results from paper PMC10275583, “A symmetry mismatch unraveled: How phage HK97 scaffold flexibly accommodates a 12-fold pore at a 5-fold viral capsid vertex” (Science Advances, 2023).

Target: the molecule itself
Test: cryo-EM structure; HK97 Prohead I particles with portal, purified from E. coli co-expressing genes 3 and 5; buffer 100 mM KCl, 20 mM potassium phosphate pH 7.5; icosahedral map 3.6 A, focused reconstructions of penton vertex (C5, 3.0 A) and portal vertex (no symmetry 3.6 A, C12 3.2 A)

B1: bacteriophage HK97 portal protein (natural protein, UniProt P49859 1-424, looked up)
chain: MEEPKYTIDLRTNNGWWARLKSWFVGGRLVTPNQGSQTGPVSAHGYLGDSSINDERILQISTVWRCVSLISTLTACLPLDVFETDQNDNRKKVDLSNPLARLLRYSPNQYMTAQEFREAMTMQLCFYGNAYALVDRNSAGDVISLLPLQSANMDVKLVGKKVVYRYQRDSEYADFSQKEIFHLKGFGFTGLVGLSPIAFACKSAGVAVAMEDQQRDFFANGAKSPQILSTGEKVLTEQQRSQVEENFKEIAGGPVKKRLWILEAGFSTSAIGVTPQDAEMMASRKFQVSELARFFGVPPHLVGDVEKSTSWGSGIEQQNLGFLQYTLQPYISRWENSIQRWLIPSKDVGRLHAEHNLDGLLRGDSASRAAFMKAMGESGLRTINEMRRTDNMPPLPGGDVAMRQAQYVPITDLGTNKEPRNNGA
notes: Portal protein of bacteriophage HK97, wild-type gene 3; 50 N-terminal residues are not visible in the density map and are missing from the model; Dodecamer at one vertex of Prohead I; also called gene 3 product; dodecameric portal complex; source: E. coli BL21 (DE3), plasmid pVPB expressing HK97 genes 3 and 5; purified within Prohead I particles (PEG precipitation, ultracentrifugation, glycerol …)
stoichiometry N: 12
